Tests used:
[1] = target: human CD19 on Nalm6 leukemia cells (human) (UniProt P15391); assay: cell-based or functional assay
[2] = target: EGFR on U87 (U87-MG) human glioblastoma cells (human, UniProt P00533 25-1210); assay: cell-based or functional assay

Chain of human CD19 on Nalm6 leukemia cells (human) (P15391 20-556): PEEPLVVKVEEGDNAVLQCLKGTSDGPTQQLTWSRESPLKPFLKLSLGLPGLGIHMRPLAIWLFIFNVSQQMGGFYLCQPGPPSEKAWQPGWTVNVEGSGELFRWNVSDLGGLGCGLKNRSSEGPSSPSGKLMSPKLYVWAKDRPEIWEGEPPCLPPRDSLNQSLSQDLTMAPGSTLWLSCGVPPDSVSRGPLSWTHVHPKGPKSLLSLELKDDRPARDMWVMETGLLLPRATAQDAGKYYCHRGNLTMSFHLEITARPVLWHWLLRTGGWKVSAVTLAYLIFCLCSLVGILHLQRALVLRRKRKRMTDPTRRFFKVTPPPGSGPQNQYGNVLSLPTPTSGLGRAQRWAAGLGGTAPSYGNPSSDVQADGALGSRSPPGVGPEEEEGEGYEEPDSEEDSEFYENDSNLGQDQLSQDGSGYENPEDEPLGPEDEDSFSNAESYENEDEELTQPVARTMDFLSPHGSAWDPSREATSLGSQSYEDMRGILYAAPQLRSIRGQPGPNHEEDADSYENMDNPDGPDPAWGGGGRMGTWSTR

Molecule	CpNA functional activity in supernatant after 24 h co-culture at 10:1 E:T (cleavage-activated fluorescent NA substrate) [1]	CpNA functional activity in supernatant after 24 h co-culture with Nalm6 cells at 10:1 E:T [1]	CpNA levels/activity in supernatant after 24 h co-culture at 10:1 E:T (cleavage-activated fluorescent NA substrate) [2]
CD19-specific, 4-1BBZ CAR containing the FMC63 scFv	4.9 fold	19.5 mU/ml	
806 CAR (EGFR-specific, 4-1BBZ CAR containing an 806 scFv linked via a CD8alpha hinge and CD8a TM to (other) VH: DVQLQESGPSLVKPSQSLSLTCTVTGYSITSDFAWNWIRQFPGNKLEWMGYISYSGNTRYNPSLKSRISITRDTSKNQFFLQLNSVTIEDTATYYCVTAGRGFPYWGQGTLVTVSA VL: DILMTQSPSSMSVSLGDTVSITCHSSQDINSNIGWLQQRPGKSFKGLIYHGTNLDDEVPSRFSGSGSGADYSLTISSLESEDFADYYCVQYAQFPWTFGGGTKLEIKR			2.3 fold

From patent US20240285757A1 (University of Pennsylvania, published 2024)
